System: MS2 coat protein
Assay: apparent KD of MS2 coat protein; designed switch direction (-1 OFF switch, 1 ON switch): -1; higher = weaker reporter binding
Summary of the method: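 Apparent KD, taken as the median over clusters for each design, was obtained by curve-fitting normalised cluster fluorescence. Designed RNA switches had been transcribed on Illumina chips by stalled E. coli RNA polymerase and titrated with SNAP-549-labelled MS2 coat protein, doubling from 0.7 or 1.5 nM to 3 µM.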

[1] = Eterna round: R95, input ligand: microRNA oligo, concentration not stated
[2] = input ligand: microRNA oligo, concentration not stated
[3] = Eterna round: R95, input ligand: FMN 200 uM
[4] = Eterna round: R95, input ligand: none

Sequence	apparent KD of MS2 coat protein (input ligand: FMN 200 uM) [nM]	apparent KD of MS2 coat protein (input ligand: none) [nM]	apparent KD of MS2 coat protein [1] [nM]	apparent KD of MS2 coat protein [2] [nM]	apparent KD of MS2 coat protein [3] [nM]	apparent KD of MS2 coat protein [4] [nM]
GGAAGGCGAGGAUAUACAAUAAAGAAAGCGAAAGACAUGAAACAUGAGGAUCACCCAUGUAGAAGGCGCGGAGA [AK-MS2ROC-r4-exclusion2-9] (Eterna round: R97, puzzle: Exclusion 2)	16.5	13.8	–	–	–	–
GGAAGGCGAGGAUAUGCAAUAAUACACUAAUUAAUGUGAAAACAUGAGGAUCACCCAUGUAGAAGGCGCGAGAA [AK-MS2ROC-r4-exclusion2-5] (Eterna round: R97, puzzle: Exclusion 2)	21.2	20.7	–	–	–	–
GGAAUACAUGAGGAUCACCCAUGUAAGGAUAUGCUGAUUAAAUUGGAUUAAUUAUGCAGCAGAAGGUACAAAAG [Mat - Mod of my Eli Mod D49] (puzzle: Exclusion 1)	–	–	82.3	–	–	–
GGAAUACAUGAGGAUCACCCAUGUAAGGAUAUGCUGAUUAAUUAAUUAUAAUUAUGCAGCAGAAGGUACAAAGG [Mat - Mod of my Eli Mod D50] (puzzle: Exclusion 1)	–	–	87	–	–	–
GGAAUGAGAGAGGAUAUGGGAGGGAGGACCGGACCAGAAGGCUCGACAUGAGGAUCACCCAUGUAGAGAUCCUC [AK-MS2ROC-r4-exclusion6-6.10] (Eterna round: R97, puzzle: Exclusion 6)	260	75.7	–	–	–	–
GGAAUGUAAGGAUAUGCGAAAAGAAGCCGAAGGGAGUCGAAGCAGAAGGUACAUGAGGAUCACCCAUGUAAGGG [AK-MS2ROC-r4-exclusion4-12.1] (Eterna round: R97, puzzle: Exclusion 4)	159	700	–	–	–	–
GGACAUGCAGGAUAUGUAAAAUUUGACAUGAGGAUCACCCAUGUAGAUCCUGAAUUUCCUGCAGAAGGGCAUGUCC [Mat - Exclusion 5 - Eli Mod - D18] (Eterna round: R97, puzzle: Exclusion 5)	396	109	–	–	–	–
GGACUAGGAGGAUAUACAUGAGGAUCACCCAUGUGUUGAUAAAGUCUACACAAUGUUAGUAGAAGGCUUAGACC [Eternabot (L2) Solution 18] (Eterna round: R97, puzzle: Exclusion 3)	22.5	17.5	–	–	–	–
GGACUGCGACACAGCCAAACAAAACAUGAGGAUCACCCAUGUCAGGAUAUACCGAUGCAGCAUCUGUAGAAGGGACAGAUCCAA [Qusorave] (Eterna round: R96, puzzle: Exclusion NG 3)	80.3	85.9	–	45.4	–	–
GGAGAACAUGAGGAUCACCCAUGUAAGGAUAUGCAAAAGGAUAUAGAAGGAAAAAAAAGCAGAAGGUACAAAGG [salish99-ex1_r3_101] (puzzle: Exclusion 1)	–	–	81.9	–	79.5	75.1
GGAGAGGCAGGAUAUACAUGAGGAUCACCCAUGUGAGCGAGGAGAACGAGCAAGAGAGGUAGAAGGGCCGGGAG [AK-MS2ROC-r4-exclusion3-27] (Eterna round: R97, puzzle: Exclusion 3)	46.5	44.9	–	–	–	–
GGAGCGGCAGGAUAUACAUGAGGAUCACCCAUGUAAAGAAGGGUAAGAAACCACCUCGGUAGAAGGGCCAGGAG [AK-MS2ROC-r4-exclusion3-10] (Eterna round: R97, puzzle: Exclusion 3)	191	94.5	–	–	–	–
GGAGGAAAGAUAGGAUAUUAGAGGAAGGUGGUGAUAGAGACAUGAGGAUCACCCAUGUAAGGAGGUAAGAAGGGUCGAGGAGGA [AK ExNG2-V2-6] (Eterna round: R96, puzzle: Exclusion NG 2)	231	243	–	66.5	–	–
GGAGGACGAGCAGGAUAUUUUCACAUGAGGAUCACCCAUGUGUAAUCAGGGUAAUCCUCCGCCGAAAAGAAGGGUUCGGAAUAA [Mat - Exclusion NG 2 - Mod of JL - D82] (Eterna round: R96, puzzle: Exclusion NG 2)	60	70.5	–	52.4	–	–
GGAGGUGAGGUAAGGAUAUCCUCCUCGAAAGAGGAGGAGAAGGUACAUGAGGAUCACCCAUGUAAGGAAGGAGG [AK-MS2ROC-r4-Bmoexclusion4-11] (Eterna round: R97, puzzle: Brourd's mod of Exclusion 4)	152	54.2	–	–	–	–
GGAGUACAUGAGGAUCACCCAUGUGAGGAUAUGUAAGGAUAGUAGGUAAGGAAAGAGGACAGAAGGCACGGGAA [JR_Exclu1_Sub070] (puzzle: Exclusion 1)	–	–	41.4	–	46	67.2
GGAUAAAAGACAGGAUAUGAGGAGAGAGAGAGAUCAGAAGGGUCACAUGAGGAUCACCCAUGUGAGUUCUCGAUAAGAAACACG [Prohibition 54 - Jieux - Exclusion NG 1] (Eterna round: R96, puzzle: Exclusion NG 1)	15.5	18.4	–	12.7	–	–

Reference: the supplement of paper PMC9170038
